In patent US20100158926A1:
“And” between values parts separate entries of the source, which are not always exact repeats. Identical values can stand only once. One block for each molecule: values may come before it.

Legend:
[1] = target: human ErbB2, full length, on cells (B300.19/hErbB2 clone #44; MCF7; BT474; SKBR3) (human)
[2] = target: human ErbB2 ECD-myc/His fusion protein (human); test: SPR, high resolution Biacore T100; mAb captured on goat anti-human IgG, hHer-2(ECD)cMyc injected; 1:1 fit
[3] = target: human ErbB2, full length, on cells (B300.19/hErbB2 clone #44; MCF7; BT474; SKBR3) (human); remark: listed apart in the source
[4] = target: human ErbB2, full length, on cells (B300.19/hErbB2 clone #44; MCF7; BT474; SKBR3) (human); remark: listed apart in the source
[5] = target: human ErbB2, full length, on cells (B300.19/hErbB2 clone #44; MCF7; BT474; SKBR3) (human); remark: listed apart in the source
[6] = target: human ErbB2, full length, on cells (B300.19/hErbB2 clone #44; MCF7; BT474; SKBR3) (human); remark: listed apart in the source
[7] = target: human ErbB2 ECD-myc/His fusion protein (human); test: SPR, medium resolution Biacore 2000; mAb captured on goat anti-human IgG, ErbB2(ECD)-cMyc/His injected; 1:1 fit
[8] = target: human ErbB2, full length, on cells (B300.19/hErbB2 clone #44; MCF7; BT474; SKBR3) (human); remark: listed apart in the source
[9] = target: human ErbB2 ECD-myc/His fusion protein (human); test: limited antigen ELISA, 31 ng/ml antigen coated, supernatant 1:25, OD 450 nm

N1 % Inhibition @40 µg/ml, BT474 cell proliferation [1]: -9%
N1 EC50 (ng/ml), inhibition of BT474 cell proliferation [1]: > 40000 ng/mL
N2 EC50 (ng/ml), inhibition of BT474 cell proliferation [1]: 4750 ng/mL
Kd [2]: 3.2 nM
EC50 (ng/ml) n1, inhibition of Heregulin-induced ErbB2 phosphorylation in MCF7 cells [3]: 43.6 ng/mL
EC50 (ng/ml) n2, inhibition of Heregulin-induced ErbB2 phosphorylation in MCF7 cells [3]: 14.6 ng/mL
% Inhibition @10 µg/ml, Heregulin-induced MCF7 cell proliferation [4]: 90%
EC50 (ng/ml), inhibition of Heregulin-induced MCF7 cell proliferation [4]: 404 ng/mL
EC50 (ng/ml), inhibition of SKBR3 cell proliferation [5]: > 36000 ng/mL
% Inhibition @10 µg/ml (n1), ErbB2 phosphorylation in BT474 cells at 48 hours [6]: 10%
Molecule: chimeric anti-hErbB2 antibody 2C4

N1 % Inhibition @40 µg/ml, BT474 cell proliferation [1]: -2%
N1 EC50 (ng/ml), inhibition of BT474 cell proliferation [1]: > 40000 ng/mL
N2 EC50 (ng/ml), inhibition of BT474 cell proliferation [1]: > 40000 ng/mL
% inhibition @36 µg/ml, SKBR3 cell proliferation [5]: 2%
EC50 (ng/ml), inhibition of SKBR3 cell proliferation [5]: > 36000 ng/mL
Molecule: hIgG1 control antibody

Continued, molecule first:

Molecule: Herceptin® (antibody)
EC50 (ng/ml) n1, inhibition of Heregulin-induced ErbB2 phosphorylation in MCF7 cells [3]: > 10000 ng/mL
EC50 (ng/ml) n2, inhibition of Heregulin-induced ErbB2 phosphorylation in MCF7 cells [3]: > 10000 ng/mL
EC50 (ng/ml), inhibition of Heregulin-induced MCF7 cell proliferation [4]: > 10000 ng/mL
% Inhibition @10 µg/ml (n1), ErbB2 phosphorylation in BT474 cells at 48 hours [6]: 5%

B1: monoclonal antibody 1.96 (antibody, V domains shown)
VH: EVQLVESGGGLVQPGGSLRLSCAASGFTFSSYWMSWVRQAPGKGLEWVANIKQDGSEKYYVDSVKGRFTISRDNAKNSLYLQMNSLRAEDTAVYYCARWGVFGSGSYYIPFDYWGQGTLVTVSS
VL: DIQMTQSPSSLSASVGDRVTITCRASHSITRYINWYQQKPGKAPNLLIYAASSLQSGVPSRFSGSGSGTDFTLTISSPQPEDFATYYCQQSYSSPPITFGQGTRLEIK
N1 % Inhibition @40 µg/ml, BT474 cell proliferation [1]: 35%
N1 EC50 (ng/ml), inhibition of BT474 cell proliferation [1]: 131 ng/mL
N2 EC50 (ng/ml), inhibition of BT474 cell proliferation [1]: 66.3 ng/mL
Kd [2]: 11.6 nM
koff [2]: 0.000194 s⁻¹
kon [2]: 16800 M⁻¹ s⁻¹
EC50 (ng/ml) n1, inhibition of Heregulin-induced ErbB2 phosphorylation in MCF7 cells [3]: 28.8 ng/mL
EC50 (ng/ml) n2, inhibition of Heregulin-induced ErbB2 phosphorylation in MCF7 cells [3]: 34 ng/mL
Kd [7]: 2.6 nM
koff [7]: 0.000273 s⁻¹
kon [7]: 103000 M⁻¹ s⁻¹
% Inhibition @10 µg/ml, Heregulin-induced MCF7 cell proliferation [4]: 98%
EC50 (ng/ml), inhibition of Heregulin-induced MCF7 cell proliferation [4]: 2830 ng/mL
24 hr pTyr inhibition % (line 1*96) [8]: 99%
24 hr pTyr inhibition % (line 1*99) [8]: 99%
24 hr pTyr inhibition % (line 1*104) [8]: 73%
24 hr pTyr inhibition % (line 1*107) [8]: 82%
24 hr pTyr inhibition % (line 1*128) [8]: 98%
% inhibition @36 µg/ml, SKBR3 cell proliferation [5]: 43%
EC50 (ng/ml), inhibition of SKBR3 cell proliferation [5]: 41.7 ng/mL
% Inhibition @10 µg/ml (n1), ErbB2 phosphorylation in BT474 cells at 48 hours [6]: 37%

B2: monoclonal antibody 1.20 (antibody, V domains shown)
VH: QLQLQESGPGLVKPSETLSLTCTVSGGSISSSNYYWGWIRQPPGKGLEWIGTIYYTGSTYYNPSLKSRVTISVDTSKNQFSLKLSSVTAADTAVYYCARHHWVFDYWGQGTLVTVSS
VL: DIQMTQSPSSVSASVGDRVTITCRASQGISSWLAWYQQKPGKAPKLLIYAASSLQSGVPSRFSGSGSGTDFTLTISSLQPEDFATYYCQRTNSFPRTFGQGTKVEIK
N1 % Inhibition @40 µg/ml, BT474 cell proliferation [1]: 40%
N1 EC50 (ng/ml), inhibition of BT474 cell proliferation [1]: 85.3 ng/mL
N2 EC50 (ng/ml), inhibition of BT474 cell proliferation [1]: 12.8 ng/mL
LA at 31 ng/ml [9]: 2.84 OD and 1.77 OD
EC50 (ng/ml) n1, inhibition of Heregulin-induced ErbB2 phosphorylation in MCF7 cells [3]: 15.5 ng/mL
EC50 (ng/ml) n2, inhibition of Heregulin-induced ErbB2 phosphorylation in MCF7 cells [3]: 17.4 ng/mL
Kd [7]: 3.6 nM
koff [7]: 0.000344 s⁻¹
kon [7]: 95000 M⁻¹ s⁻¹
% Inhibition @10 µg/ml, Heregulin-induced MCF7 cell proliferation [4]: 100%
EC50 (ng/ml), inhibition of Heregulin-induced MCF7 cell proliferation [4]: 770 ng/mL
24 hr pTyr inhibition % (line 1*19) [8]: 97%
24 hr pTyr inhibition % (line 1*20) [8]: 96%
% inhibition @36 µg/ml, SKBR3 cell proliferation [5]: 49%
EC50 (ng/ml), inhibition of SKBR3 cell proliferation [5]: 25.2 ng/mL
% Inhibition @10 µg/ml (n1), ErbB2 phosphorylation in BT474 cells at 48 hours [6]: 21%
